This test deals with portions of the MUC16 extracellular domain (ECD) (UniProt Q8NEV4). Briefly: surface plasmon resonance with portions of the MUC16 ECD. (In general: SPR reads the build-up and loss of mass on a sensor chip optically.)

B1: A117C thio hu anti-MUC16 3A5 humanized variant (antibody, human IgG1, kappa, V domains shown)
VH: EVQLVESGGGLVQPGGSLRLSCAASGYSITNDYAWNWVRQAPGKGLEWVGYISYSGYTTYNPSLKSRFTISRDTSKNTLYLQMNSLRAEDTAVYYCARWTSGLDYWGQGTLVTVSS
VL: DIQMTQSPSSLSASVGDRVTITCKASDLIHNWLAWYQQKPGKAPKLLIYGATSLETGVPSRFSGSGSGTDFTLTISSLQPEDFATYYCQQYWTTPFTFGQGTKVEIKR
notes: Full-length IgG expressed in CHO cells; Kabat A114C, Eu A118C) change; also called thio hu anti-MUC16 HC A117C 3A5; A117C thio hu 3A5
As to B1, the Kd (in general, the concentration at which binding is half-saturated) is 0.116 nM.

Source of the values: USRE47194 (Genentech, dated 2019).
